The subject of this data set is MS2 coat protein. The experiment in a line: apparent KD of MS2 coat protein; designed switch direction (-1 OFF switch, 1 ON switch): -1; higher = weaker reporter binding. In outline:
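RNA switches sharing common flanks were transcribed by stalled E. coli RNA polymerase on Illumina chips. A doubling series of SNAP-549-labelled MS2 coat protein, from 0.7 or 1.5 nM to 3 µM, was applied in Tris-HCl pH 7.5 buffer with KCl, MgCl2, BSA, DTT, tRNA and Tween-20. Each step lasted 0.8–1.5 h at the bottom of the series and 10–20 min at the top. Normalised cluster fluorescence was curve-fitted, giving apparent KD as the per-design median over clusters.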

The mark [1] stands for this setting: Eterna round: R95, input ligand: microRNA oligo, concentration not stated.
Setting [2] is: Eterna round: R95, input ligand: FMN 200 uM.
The mark [3] stands for this setting: Eterna round: R95, input ligand: none.
[4] abbreviates: input ligand: microRNA oligo, concentration not stated.

Turning to “CCAAGCUUUUUCCUUAACAACAUGAGGAUCACCCAUGUGUAAGCUAUUCGGUUUGGGCUCUUUAGUGCUCGUCUUAU [malcom mod] (Eterna round: R97, puzzle: Sensor, turn-off variant 1)”, the “apparent KD of MS2 coat protein” value stood at 19.2 nM (input ligand: FMN 200 uM) and 19.7 nM (input ligand: none).

For the sequence “CCACGACAUGAGGAUCACCCAUGUGAGGAUAUGGCCUGUAAGGCGUGAGCUGAAUCAAUCAGAAGGCGCGUGGG [salish99_ex1_r4_057] (Eterna round: R97, puzzle: Exclusion 1)”, the “apparent KD of MS2 coat protein” value (input ligand: FMN 200 uM) came out at 92.4 nM and the “apparent KD of MS2 coat protein” value (input ligand: none) was determined as 50.6 nM.

On to “CCACGGUGAGGAUAUCAAAGAUUGCGCUCGGAAGGUCAAUUUGAGAAGGCACAUGAGGAUCACCCAUGUUAGCG [Eternabot (L2) Solution 40] (Eterna round: R97, puzzle: Exclusion 4)”, for which the “apparent KD of MS2 coat protein” value by setting is: (input ligand: FMN 200 uM) 29.8 nM; (input ligand: none) 34.6 nM.

As for “CCACUGUCAGGAUAUCGUGCAUAAGCGUUUACACUUAUGUGCGAGAAGGGACAUGAGGAUCACCCAUGUAAACG [Omei Ex4 A28PK7] (Eterna round: R97, puzzle: Exclusion 4)”, the “apparent KD of MS2 coat protein” value is, setting by setting: (input ligand: FMN 200 uM) 628 nM; (input ligand: none) 391 nM.

On to “CCAGCGCGUGUGAGGAUAUGCUGGUCCUUGGAUCAGCAGAAGGCACAUGAGGAUCACCCAUGUGAGUGCGUUGG [JL bmx4 3.35] (puzzle: Brourd's mod of Exclusion 4)”, for which the “apparent KD of MS2 coat protein” value under setting [1] came to 16.2 nM.

For the sequence “CCAGGCAGUGUGAGGAUAUGCUGGUCCUUGGAUCAGCAGAAGGCACAUGAGGAUCACCCAUGUGAAUAGCUUGG [JL bmx4 3.25] (puzzle: Brourd's mod of Exclusion 4)”, the “apparent KD of MS2 coat protein” value under setting [2] came out at 105 nM, the “apparent KD of MS2 coat protein” value under setting [1] is 20.5 nM and the “apparent KD of MS2 coat protein” value under setting [3] was 21.8 nM.

As for “CCAGGCAGUGUGAGGAUAUGCUGGUGGAUACAUCAGCAGAAGGCACAUGAGGAUCACCCAUGUGAAGAGCUUGG [Mat - Exclusion 4 - JL Mod - D99] (puzzle: Brourd's mod of Exclusion 4)”, the “apparent KD of MS2 coat protein” value is 136 nM under setting [2], 19 nM under setting [1] and 20.5 nM under setting [3].

Regarding “CCAUAUAACUGAGGAUAUAAUCGCCACUGACGUUUAGAAGGCAGACAUGAGGAUCACCCAUGUGAUUUCUCAAUAUUAUACAUC [Prohibition 78 - Jieux - Exclusion NG 1] (Eterna round: R96, puzzle: Exclusion NG 1)”, the “apparent KD of MS2 coat protein” value was determined as 1840 nM (input ligand: FMN 200 uM), 31.1 nM under setting [4] and 245 nM (input ligand: none).

On to “CCAUCGAGUGUGAGGAUAUGCUGUUCGAAAGAGCAGCAGAAGGCACAUGAGGAUCACCCAUGUGGAUACGGUGG [Mat - Exclusion 4 - JL Mod - D82] (puzzle: Brourd's mod of Exclusion 4)”, for which the “apparent KD of MS2 coat protein” value under setting [1] worked out at 30.6 nM.

Regarding “CCAUGGGAGCGAGGAUAUAGACCAUGGGAAGAGCUAGAAGGCGCUGACAUGAGGAUCACCCAUGUGUUCAUGAGGAGGUGGACA (Eterna round: R96, puzzle: Exclusion NG 1)”, the “apparent KD of MS2 coat protein” value is, setting by setting: (input ligand: FMN 200 uM) 215 nM; under setting [4], 88.7 nM; (input ligand: none) 113 nM.

In the case of “CCAUGUCCAGAGGAUAUGUAGCGGAUAAACGCAACAGAAGGCUGGACAUGAGGAUCACCCAUGUGCGCCUUCCA [Letion] (Eterna round: R97, puzzle: Exclusion 6)”, the “apparent KD of MS2 coat protein” value by setting is: (input ligand: FMN 200 uM) 35.7 nM; (input ligand: none) 106 nM.

In the case of “CCCACAAGCUUUUUGCUCGACAUGAGGAUCACCCAUGUUGAAUGGGUUAGAUGUGUGUGAAACACACACAUCUACCU [-32.5, -55.3 kcal, A 27%] (Eterna round: R97, puzzle: Sensor, turn-off variant 1)”, the “apparent KD of MS2 coat protein” value is, setting by setting: (input ligand: FMN 200 uM) 20.3 nM; (input ligand: none) 18.6 nM.

“CCCACAAGCUUUUUGCUCGACAUGAGGAUCACCCAUGUUGAAUGGGUUAUGUGUGUGUGAUACAUAUAUAUGGUCCU [-25.6, -50.5 kcal, A 23%] (Eterna round: R97, puzzle: Sensor, turn-off variant 1)”: the “apparent KD of MS2 coat protein” value (input ligand: FMN 200 uM) was determined as 201 nM and the “apparent KD of MS2 coat protein” value (input ligand: none) came to 207 nM.

In the case of “CCCAGAUAGGAAGGAUAUUGUACAUGAGGAUCACCCAUGUAAUAAAUGAGGAUCACGGAUGUAGACAAGAAGGUCCGGAUAGGC [Ostracism 7 - Jieux - Exclusion NG 2] (Eterna round: R96, puzzle: Exclusion NG 2)”, the “apparent KD of MS2 coat protein” value is, setting by setting: (input ligand: FMN 200 uM) 108 nM; under setting [4], 42.5 nM; (input ligand: none) 50.2 nM.

For “CCCAGUUAGUCAGGAUAUCUUACAUGAGGAUCACCCAUGUAAUAAAUGAGGAUUUCGGGUGUCUAAGAGAAGGGACGGAUAGGC [Ostracism 27 - Jieux - Exclusion NG 2] (Eterna round: R96, puzzle: Exclusion NG 2)”, the “apparent KD of MS2 coat protein” value was 22.3 nM (input ligand: FMN 200 uM), 9.5 nM under setting [4] and 19.4 nM (input ligand: none).

For the sequence “CCCGAGCUAGGAUAUGCACAAGGUAUCGAUCCACAACACACACAUGAGGAUCACCCAUGUAGAAGGAGCAUCGU [Eternabot (L2) Solution 27] (Eterna round: R97, puzzle: Exclusion 2)”, the “apparent KD of MS2 coat protein” value by setting is: (input ligand: FMN 200 uM) 165 nM; (input ligand: none) 77.9 nM.

“CCCGCAGGUUUUUUGCUCGACAUGAGGAUCACCCAUGUUGCGUGGGUUGUGUGUGUGUGGUGCAUAUAUAUGGUCCU [-25.4, -48.9 kcal, A 14%] (Eterna round: R97, puzzle: Sensor, turn-off variant 1)”: the “apparent KD of MS2 coat protein” value by setting is: (input ligand: FMN 200 uM) 300 nM; (input ligand: none) 350 nM.

In the case of “CCCGGGUCUGCAGGAUAUUCGAAAGCAGGUCAAAGGUCACAUGAGGAUCACCCAUGUAGUUUAACGAAGAAGGGUGUCGCCCGU [Eternabot solution 38] (Eterna round: R96, puzzle: Exclusion NG 2)”, the “apparent KD of MS2 coat protein” value was found to be 168 nM (input ligand: FMN 200 uM), 76.7 nM under setting [4] and 162 nM (input ligand: none).

In the case of “CCCGUGUGAGGAUAUACUCUAAGCAUUGACAGUUGCUACAGGUAGAAGGCACAUGAGGAUCACCCAUGUCCCGG [EX4 C.13] (Eterna round: R97, puzzle: Exclusion 4)”, the “apparent KD of MS2 coat protein” value (input ligand: FMN 200 uM) stood at 66 nM and the “apparent KD of MS2 coat protein” value (input ligand: none) is 295 nM.

As for “CCCGUGUUAGGAUAUACGGCACACCCACCAGCGGGUGUAUAGUAGAAGGAACAUGAGGAUCACCCAUGUAUAAC [Inardiza] (puzzle: Exclusion 4)”, the “apparent KD of MS2 coat protein” value under setting [1] worked out at 32.4 nM.

On to “CCCUCACAUGAGGAUCACCCAUGUAAGGAUAUCUUCGCUUUGACGUUGUUGAAUGCGAAGAGAAGGUGCACGGC [jl-ex1-4.71 ViennaUCT mod] (Eterna round: R97, puzzle: Exclusion 1)”, for which the “apparent KD of MS2 coat protein” value worked out at 43 nM (input ligand: FMN 200 uM) and 20.9 nM (input ligand: none).

For “CCCUUUCAGGCAGGAUAUGUUCAUUUGUGAAUGGUGCCUACCUCACAUGAGGAUCACCCAUGUGGACAGAAGGGCCGGUGAAAA [Eternabot solution 26] (Eterna round: R96, puzzle: Exclusion NG 2)”, the “apparent KD of MS2 coat protein” value by setting is: (input ligand: FMN 200 uM) 120 nM; under setting [4], 25.5 nM; (input ligand: none) 25.7 nM.

As for “CCGAAACAUGAGGAUCACCCAUGUGAGGAUAUGAGCGUCUAGUUGAGAGAUUGGACGCUCAGAAGGCACAUUGG [JR_Ex1_Sub075] (Eterna round: R97, puzzle: Exclusion 1)”, the “apparent KD of MS2 coat protein” value reads like this: (input ligand: FMN 200 uM) 76.7 nM; (input ligand: none) 121 nM.

“CCGAACUCAGGAUAUGCAUGUAUAACAGAGAGAUCCACUAAACAUGAGGAUCACCCAUGUAGAAGGGAGUCGGG [Eternabot (L1) Solution 14] (Eterna round: R97, puzzle: Exclusion 2)”: the “apparent KD of MS2 coat protein” value by setting is: (input ligand: FMN 200 uM) 887 nM; (input ligand: none) 365 nM.

As to “CCGAAUAAGCAGGAUAUCGUUUCGGAAACGAAACGAGAAGGGCUAACAUGAGGAUCACCCAUGUUCCUUAACGG [Mat - Exclusion 6 - Eli Mod - D77] (puzzle: Exclusion 6)”, the “apparent KD of MS2 coat protein” value is 23.9 nM under setting [2], 18.3 nM under setting [1] and 18 nM under setting [3].

For the sequence “CCGAGGUAGCGGUCCUAUGACAUGAGGAUCACCCAUGUACCUCGCUACGAGCUUUUUGCUCGUCUUAAAAUUCUCGG [Mat - Sensor v3 - turn-off var 1 - JL Mod - D29] (puzzle: Sensor v3, turn-off variant 1)”, the “apparent KD of MS2 coat protein” value is, setting by setting: under setting [2], 47 nM; under setting [1], 156 nM; under setting [3], 54 nM.

As for “CCGCAAAAUGAGGAUAUCGUAUCGGAUACGAUACGAGAAGGCGUAACAUGAGGAUCACCCAUGUGUCCUAGCGG [Fiskers Ex 6 - 35] (puzzle: Exclusion 6)”, the “apparent KD of MS2 coat protein” value under setting [1] came to 13.5 nM.

Consider “CCGCAACAUGAGGAUCACCCAUGUCAGGAUAUCGUACGUUCGUCGAUAGACGAUCGUACGAGAAGGGUGUGCGG [Mat - Exclusion 1 - Eli Mod - D35] (Eterna round: R97, puzzle: Exclusion 1)”, for which the “apparent KD of MS2 coat protein” value (input ligand: FMN 200 uM) amounted to 81.5 nM and the “apparent KD of MS2 coat protein” value (input ligand: none) is 103 nM.

In the case of “CCGCAUAAGCAGGAUAUCGUAUCGGAAACGAUACGAGAAGGGUUUACAUGAGGAUCACCCAUGUUCCUUAGCGG [Mat - Exclusion 6 - Eli Mod - D100] (puzzle: Exclusion 6)”, the “apparent KD of MS2 coat protein” value turned out to be 49.9 nM under setting [2], 31.5 nM under setting [1] and 32.6 nM under setting [3].

In the case of “CCGGAAAUACAGGAUAUAGGAGUCGAUAGACUCCUAGAAGGGUAUACAUGAGGAUCACCCAUGUUCCUUACCGG [Fiskers Ex 6 - 72] (puzzle: Exclusion 6)”, the “apparent KD of MS2 coat protein” value under setting [1] was determined as 36.9 nM.

For the origin of these results see the supplement of paper PMC9170038.
